The molecules below were run on CBCA, THCA, and CBDA production (assay: In vivo TS activity assay, Example 1 CBCAS library screen, cultures fed olivetolic acid, LC-MS). Settings: primary and secondary screen.
Assay type: cell-based, S. cerevisiae
Text: To identify CBCAS genes that can be functionally expressed in host cells, a library of approximately 3000 candidate CBCAS genes was designed based on internal codebases and domain knowledge, sampled across enzyme families, ecological niches, and structural homologies. Protein sequences were recoded in silico for expression in S. cerevisiae and synthesized in the integrative yeast expression vector shown in FIG. 5. Each candidate enzyme expression construct was transformed into an S. cerevisiae CEN.PK strain that also expressed a prenyltransferase enzyme capable of catalyzing reaction R^4 in FIG. 2. Strain t616313, expressing GFP, was included in the library screen as a negative control for enzyme activity. […]
An assay to detect TS activity was conducted as follows: each thawed glycerol stock of candidate CBCAS transformants was stamped into a well of YEP+4% dextrose media. […] Optical measurements were taken on a plate reader, with absorbance measured at 600 nm and fluorescence at 528 nm with 485 nm excitation. […] CBCA, THCA, and CBDA production in the samples was quantified via liquid chromatography-mass spectrometry (LC-MS). […]

Row | Molecule | CBCAS activity / CBCA production
1 | putative C. sativa CBCAS enzyme: previously disclosed putative C. sativa CBCAS (SEQ ID NO: 15) (protein) MNCSTFSFWFVCKIIFFFLSFNIQISIANPQENFLKCFSEYIPNNPANPKFIYTQHDQLYMSVLNSTIQNLRFTSDTTPKPLVIVTPSNVSHIQASILCSKKVGLQIRTRSGGHDAEGLSYISQVPFAIVDLRNMHTVKVDIHSQTAWVEAGATLGEVYYWINEMNENFSFPGGYCPTVGVGGHFSGGGYGALMRNYGLAADNIIDAHLVNVDGKVLDRKSMGEDLFWAIRGGGGENFGIIAACKIKLVVVPSKATIFSVKKNMEIHGLVKLFNKWQNIAYKYDKDLMLTTHFRTRNITDNHGKNKTTVHGYFSSIFLGGVDSLVDLMNKSFPELGIKKTDCKELSWIDTTIFYSGVVNYNTANFKKEILLDRSAGKKTAFSIKLDYVKKLIPETAMVKILEKLYEEEVGVGMYVLYPYGGIMDEISESAIPFPHRAGIMYELWYTATWEKQEDNEKHINWVRSVYNFTTPYVSQNPRLAYLNYRDLDLGKTNPESPNNYTQARIWGEKYFGKNFNRLVKVKTKADPNNFFRNEQSIPPLPPRHH | not found to be active

Each molecule was assayed on CBCA production (assay: In vivo TS activity assay, Example 4 CBCAS enzymes with and without signal peptides, no pH adjustment). Settings: strains with (Y) or without (N) N-terminal and C-terminal signal peptides; no pH adjustment at Day 4; S. cerevisiae.
Assay type: cell-based
Protocol: An assay to detect TS activity was conducted as follows: each thawed glycerol stock of candidate CBCAS transformants was stamped into a well of YEP+4% dextrose media. Samples were incubated at 30° C. in a shaking incubator for 2 days. A portion of each of the resulting cultures was stamped into a well of YEP+4% galactose+1 mM olivetolic acid (FIG. 1 Structure 6a). Samples were incubated at 20° C. and shaken in a shaking incubator for 4 days. Every 24 hours during those 4 days, 2% galactose and 1 mM olivetolic acid were spiked into the cultures. Sodium citrate buffer adjusted to pH 5.5 was added to each well at a final concentration of 100 mM. Samples were incubated at 20° C. and shaken in a shaking incubator for 2 days. A portion of each of the resulting production cultures was stamped into a well of phosphate buffered saline (PBS). Optical measurements were taken on a plate reader, with absorbance measured at 600 nm and fluorescence at 528 nm with 485 nm excitation. Samples were incubated at 30° C. in a shaking incubator for 2 days. 100% methanol was stamped into the production cultures in half-height deepwell plates. Plates were heat sealed and frozen. Samples were then thawed for 30 min and spun down at 4° C. A portion of the supernatant was stamped into half-area 96 well plates. CBCA, THCA, and CBDA production in the samples was quantified via liquid chromatography-mass spectrometry (LC-MS).
A library of 20 CBCAS enzymes selected from Example 1 and 3 was synthesized, including versions of the CBCAS enzymes with and without the N-terminal MFalpha2 signal peptide (SEQ ID NO: 16) and C-terminal HDEL signal peptide (SEQ ID NO: 17). Each candidate enzyme expression construct was transformed into an S. cerevisiae CEN.PK strain that also expressed a prenyltransferase enzyme capable of catalyzing reaction R^4 in FIG. 2. Strain t861555 expressing the A. niger CBCAS identified in Example 1, carrying both the Mfalpha2 and HDEL signal peptides was included in the library screen as a positive control for enzyme activity. Strain t861565 expressed the same A. niger CBCAS without the Mfalpha2 and HDEL signal peptides.
The strains were screened using the assay described in Example 1 with the following exception: at Day 4 samples were not subjected to a pH adjustment and a further 2 days of incubation at 20° C.

Row | Molecule | Average CBCA [µg/L]
2 | t861580 (protein, Monosporascus sp. mg162) MGQTPSSPLADCLNAVCNGRDNCVAFPSAPLYQISWVDRYNLDIEVEPIAVTRPETAEDVSGFVKCAAAHNIKVQAKSGGHSYANYGLGGEDGELVVDLRNFQDFSIDTNTWQATFGAGHKLDDVTEKLHKNGKRAISHGTCPGVGIGGHATIGGLGPESRMWGSCLDHVIGVEVVTADGSIVHASDTENSDLFFALKGAGASFGIVTSFVVKTRPEPGSVVQYSYSVTFAKHADLSPVFRQWQELVMDPGLDRRFGTEFTMHELGVIISGTFYGTDEEFQATGIPDRIPKGKISVVFDDWMAVIAKHAEEAALSLSSISSAFTARSLAFRREDKISPETITNLMNYIDSADRGTLVWFLIFDATGGAISDVPTNATAYSHRDKVMYCQGYGVGIPTLNQQTKDFLSGIINTIQSGAGNTLTTYPGYVDPALTNPQESYWGPNIDTLRAIKSQWDPNDIFHNPQSVRPAAVAA | 0.00
3 | t861571 (protein) MGNTTSIAGRDCLISALGGNSALAVFPNELLWTADVHEYNLNLPVTPAAITYPETAAQIAGVVKCASDYDYKVQARSGGHSFGNYGLGGADGAVVVDMKHFTQFSMDDETYEAVIGPGTTLNDVDIELYNNGKRAMAHGVCPTIKTGGHFTIGGLGPTARQWGLALDHVEEVEVVLANSSIVRASNTQNQDVFFAVKGAAANFGIVTEFKVRTEPAPGLAVQYSYTFNLGSTAEKAQFVKDWQSFISAKNLTRQFYNNMVIFDGDIILEGLFFGSKEQYDALGLEDHFAPKNPGNILVLTDWLGMVGHALEDTILKLVGNTPTWFYAKSLGFRQDTLIPSAGIDEFFEYIANHTAGTPAWFVTLSLEGGAINDVAEDATAYAHRDVLFWVQLFMVNPVGPISDTTYEFTDGLYDVLARAVPESVGHAYLGCPDPRMEDAQQKYWRTNLPRLQELKEELDPKNTFHHPQGVMPA | 54271.76
4 | t861561 (protein) MGNTTSIAAGRDCLISAVGGNAAHVAFQDQLLYQATAVDVYNLNIPVTPAAVTYPQSADEVAAVVKCASEYDYKVQARSGGHSFGNYGLGGQNGAIVVDMKHFSQFSMDESTYTATIGPGITLGDLDTELYNAGHRAMAHGICPTIRTGGHLTIGGLGPTARQWGLALDHVEEVEVVLANSSIVRASETQNQDVLFAVKGAAASFGIVTEFKVRTEQAPGLAVQYSYTFNLGTPAEKAKLLKDWQAFIAQEDLTWKFYSNMVIFDGQIILEGIFFGSKEEYDALDLEKRFPTSEPGTLLVLTDWLGMVGHSLEDVILRLVGNTPTWFYAKSLGFTPRTLIPDSAIDRFFDYIHETNAGTLAWFVTLSLEGGAINAVPEDATAYGHRDVLFWVQIFMVNPLGPISQTIYDFADGLYDVLAQAVPESAEHAYLGCPDPKMPDAQRAYWRGNLPRLEELKGEFDPKDTFHNPQGVSVAV | 46161.25
5 | t861579 (protein) MGNTTSIAAGRDCLVSAVGPAHVTFQDALLYQTTAVDPYNLNIPVTPAAVTYPQSAEEIAAVVKCASDYDYKVQARSGGHSFGNYGLGGQNGAIVVDMKHFSQFSMDESTFVATIGPGTTLGDLDTELYNAGGRAMAHGICPTIRTGGHLTVGGLGPTARQWGLALDHIEEVEVVLANSSIVRASNTQNQDILFAVKGAAASFGIVTEFKVRTQEAPGLAVQYSFTFNLGSPAQKAKLVKDWQAFIAQENLSWKFYSNLVIFDGQIILEGIFFGSKEEYDELDLEKRFPTSEPGTVLVLTDWLGMIGHALEDTILKLVGDTPTWFYAKSLGFTPDTLIPDSAIDDFFDYIHKTNAGTLAWFVTLSLEGGAINSVSEDATAYGHRDVLFWFQVFVVNPLGPISQTTYDFTNGLYDVLAQAVPESAGHAYLGCPDPKMPDAQRAYWRSNLPRLEDLKGDLDPKDTFHNPQGVQVGP | 57912.84
6 | t861585 (protein, N- and C-terminal signal peptides) MGNTTSIAGRDCLVSALGGNAGLVAFQNQPLYQTTAVHEYNLNIPVTPAAITYPETAEQIAAVVKCASQYDYKVQARSGGHSFGNYGLGGTDGAVVVDMKYFNQFSMDDQTYEAVIGPGTTLGDVDVELYNNGKRAMAHGVCPTISTGGHFTMGGLGPTARQWGLALDHVEEVEVVLANSSIVRASNTQNQEVFFAVKGAAASFGIVTEFKVRTQPAPGIAVQYSYTFNLGSSAEKAQFIKDWQSFVSAKNLTRQFYTNMVIFDGDIILEGLFFGSKEQYEALRLEERFVPKNPGNILVLTDWLGMVGHALEDTILRLVGNTPTWFYAKSLGFTPDTLIPSSGIDEFFKYIENNKAGTSTWFVTLSLEGGAINDVPADATAYGHRDVLFWVQIFMVSPTGPVSSTTYDFADGLYNVLTKAVPESEGHAYLGCPDPKMANAQQKYWRQNLPRLEELKETLDPKDTFHNPQGILPA | 39673.45
